Test results published in the supplement of paper PMC9112550, “Optimization of the antimicrobial peptide Bac7 by deep mutational scanning” (BMC Biology, 2022).

What follows are sequences tested on Escherichia coli TOP10 (assay: shrunken log2 fold change of peptide-encoding DNA abundance (4.5 h post-induction vs induction); higher = less antimicrobial activity (less host growth inhibition)). Settings: time post-induction: 4.5 h; library: site-saturation at positions 5, 18, 19, 20.
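Further: peptides expressed intracellularly from a pBAD plasmid library in pooled LB shake-flask culture, induced with 0.3% L-arabinose, DNA abundance read by NGS, three biological replicates, DESeq2 with apeglm shrinkage.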

Sequence	shrunken log2 fold change
RRIRDRPPRLPRPRPRPTCRPRP	0.175
RRIRKRPPRLPRPRPRPPVPPRP	0.794
RRIRRRPPRLPRPRPRPDFAPRP	0.39
RRIRHRPPRLPRPRPRPYHSPRP	-0.0215
RRIRYRPPRLPRPRPRPLSFPRP	-1.04
RRIRFRPPRLPRPRPRPCHGPRP	-1.45
RRIRCRPPRLPRPRPRPGRHPRP	0.105
RRIRYRPPRLPRPRPRPKALPRP	0.178
RRIRWRPPRLPRPRPRPGNFPRP	-0.149
RRIRLRPPRLPRPRPRPWDMPRP	-0.235
RRIRWRPPRLPRPRPRPMNQPRP	-0.33
RRIRRRPPRLPRPRPRPGFWPRP	0.333
RRIRIRPPRLPRPRPRPYPVPRP	-0.18
RRIRGRPPRLPRPRPRPVSTPRP	0.691
RRIRNRPPRLPRPRPRPVFPPRP	-0.000239
RRIRRRPPRLPRPRPRPWGWPRP	0.482
RRIRTRPPRLPRPRPRPNDDPRP	-0.519
RRIRGRPPRLPRPRPRPSDAPRP	0.264
RRIRMRPPRLPRPRPRPTVMPRP	0.563
RRIRHRPPRLPRPRPRPQQTPRP	0.0173
RRIRPRPPRLPRPRPRPCNEPRP	-0.16
RRIRSRPPRLPRPRPRPGTRPRP	-0.0748
RRIRHRPPRLPRPRPRPCWSPRP	-0.166

Sequence	shrunken log2 fold change
RRIRVRPPRLPRPRPRPHTLPRP	-0.571
RRIRHRPPRLPRPRPRPFSVPRP	-1.26
RRIRLRPPRLPRPRPRPGDRPRP	-0.0244
RRIRRRPPRLPRPRPRPQNLPRP	-0.276
RRIRTRPPRLPRPRPRPYVRPRP	0.0143
RRIRKRPPRLPRPRPRPREFPRP	0.607
RRIRLRPPRLPRPRPRPLMVPRP	-0.326
RRIRERPPRLPRPRPRPIWRPRP	0.0579
RRIRSRPPRLPRPRPRPEDIPRP	-0.0081
RRIRMRPPRLPRPRPRPYMLPRP	-0.0122
RRIRARPPRLPRPRPRPPWEPRP	0.558
RRIRWRPPRLPRPRPRPRHTPRP	-0.0876
RRIRDRPPRLPRPRPRPKGCPRP	0.0262
RRIRCRPPRLPRPRPRPGLHPRP	-0.131
RRIRFRPPRLPRPRPRPWDVPRP	-0.0811
RRIRWRPPRLPRPRPRPFLFPRP	0.095
RRIRPRPPRLPRPRPRPHVYPRP	-0.552
RRIRQRPPRLPRPRPRPQWLPRP	0.0957
RRIRERPPRLPRPRPRPWAEPRP	0.0285
RRIRGRPPRLPRPRPRPQSGPRP	0.0868
RRIRMRPPRLPRPRPRPVDYPRP	-0.0574
RRIRMRPPRLPRPRPRPIGNPRP	0.13
RRIRARPPRLPRPRPRPEQGPRP	0.388

Sequence	shrunken log2 fold change
RRIRGRPPRLPRPRPRPDIVPRP	0.192
RRIRERPPRLPRPRPRPTTEPRP	-0.0421
RRIRNRPPRLPRPRPRPEVMPRP	0.0307
RRIRCRPPRLPRPRPRPVHHPRP	-0.176
RRIRYRPPRLPRPRPRPTEFPRP	-0.465
RRIRIRPPRLPRPRPRPIYFPRP	-0.233
RRIRLRPPRLPRPRPRPVIGPRP	-0.173
RRIRARPPRLPRPRPRPGMPPRP	0.128
RRIRWRPPRLPRPRPRPPHFPRP	0.701
RRIRMRPPRLPRPRPRPRGGPRP	1.26
RRIRNRPPRLPRPRPRPVSWPRP	0.162
RRIRARPPRLPRPRPRPLSFPRP	0.0158
RRIRERPPRLPRPRPRPSQDPRP	-0.137
RRIRRRPPRLPRPRPRPFPHPRP	0.292
RRIRWRPPRLPRPRPRPEKVPRP	0.115
RRIRCRPPRLPRPRPRPVASPRP	0.149
RRIRTRPPRLPRPRPRPILMPRP	-0.306
RRIRCRPPRLPRPRPRPNHKPRP	-0.862
RRIRMRPPRLPRPRPRPCYYPRP	-0.199
RRIRRRPPRLPRPRPRPFMAPRP	0.113
RRIRMRPPRLPRPRPRPWRSPRP	0.166
RRIRPRPPRLPRPRPRPAWYPRP	0.0306
RRIRWRPPRLPRPRPRPYCNPRP	-0.455

Sequence	shrunken log2 fold change
RRIRDRPPRLPRPRPRPNAAPRP	0.0798
RRIRWRPPRLPRPRPRPDHYPRP	-0.023
RRIRNRPPRLPRPRPRPHMLPRP	-0.954
RRIRDRPPRLPRPRPRPGWTPRP	0.379
RRIRGRPPRLPRPRPRPTHPPRP	0.868
RRIRSRPPRLPRPRPRPPLFPRP	0.257
RRIRKRPPRLPRPRPRPEGQPRP	0.107
RRIRWRPPRLPRPRPRPSIPPRP	0.46
RRIRNRPPRLPRPRPRPIIQPRP	-0.481
RRIRYRPPRLPRPRPRPRELPRP	-0.0942
RRIRCRPPRLPRPRPRPRLPPRP	0.382
RRIRPRPPRLPRPRPRPWWLPRP	-0.0379
RRIRRRPPRLPRPRPRPFMCPRP	0.0373
RRIRLRPPRLPRPRPRPPKKPRP	0.265
RRIRCRPPRLPRPRPRPQYTPRP	-0.946
RRIRLRPPRLPRPRPRPEVEPRP	0.0199
RRIRMRPPRLPRPRPRPTDFPRP	-0.0135
RRIRRRPPRLPRPRPRPTNKPRP	0.149
RRIRKRPPRLPRPRPRPSSGPRP	-0.0282
RRIRYRPPRLPRPRPRPTCSPRP	-0.0789
RRIRMRPPRLPRPRPRPAAWPRP	0.11
RRIRGRPPRLPRPRPRPDQGPRP	0.347
